Like-named read-outs stand apart in the source and are kept apart here.
Legend:
Mlph RBD (Homo sapiens) = Mlph RBD (Homo sapiens) (UniProt Q9BV36); details: cited from earlier work
GST-Rab27a-Q78L = target: T1, GST-Rab27a-Q78L (UniProt P23640 1-221, Q78L); experiment: pull-down; quantitative GST pull-down: increasing concentrations of GST-Rab27a-Q78L on beads, HEK293 lysate (GFP-SPIRE1-MSFH ~50 nM); GFP depletion from the supernatant measured by fluorospectrometry at 20 °C; fraction bound fitted for Kd
T1 construct: Rab27a; rat Rab27a is stated only for the BiFC constructs; also called GTP-locked Rab27a-Q78L; active Rab27a-Q78L; source: E. coli Rosetta, purified (GSH-Sepharose 4B, size-exclusion chromatography)
T1 sequence (looked up): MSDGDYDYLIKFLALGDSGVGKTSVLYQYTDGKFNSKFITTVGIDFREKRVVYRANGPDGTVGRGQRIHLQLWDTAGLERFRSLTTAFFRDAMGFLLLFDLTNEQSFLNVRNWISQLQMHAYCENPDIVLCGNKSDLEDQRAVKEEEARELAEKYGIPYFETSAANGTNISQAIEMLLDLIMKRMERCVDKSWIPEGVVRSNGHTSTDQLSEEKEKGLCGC

[1] = target: myosin-Va GTD (Homo sapiens) (UniProt Q9Y4I1); details: cited from earlier work
[2] = target: myosin-Va GTD (Homo sapiens) (UniProt Q9Y4I1); details: cited from earlier work; remark: listed apart in the source
vYCE-Rab27a wild type = target: T2, vYCE-Rab27a wild type (rat, UniProt P23640 1-221); experiment: split reporter (BiFC, NanoBiT); BiFC in living HEK293a cells: vYNE-SPIRE1/2 and vYCE-Rab27a co-expressed with mCherry; vYFP signal normalised to mCherry, 48 h after transfection; details: partners not purified
T2 construct: rat Rab27a; also called wild-type Rab27a; WT; source: HEK293a, transfected, in living cells
T2 sequence (looked up): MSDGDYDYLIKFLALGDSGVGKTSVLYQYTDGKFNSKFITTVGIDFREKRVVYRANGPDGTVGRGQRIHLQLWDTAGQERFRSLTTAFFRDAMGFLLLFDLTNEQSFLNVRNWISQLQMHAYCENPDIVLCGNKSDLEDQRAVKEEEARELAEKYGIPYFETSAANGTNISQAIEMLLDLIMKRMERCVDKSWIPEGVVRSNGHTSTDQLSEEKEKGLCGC

vYCE-Rab27a Q78L = target: T3, vYCE-Rab27a Q78L (rat, UniProt P23640 1-221, Q78L); experiment: as above; details: partners not purified
T3 construct: rat Rab27a; also called Q78L mutant; source: HEK293a, transfected, in living cells
T3 sequence (looked up): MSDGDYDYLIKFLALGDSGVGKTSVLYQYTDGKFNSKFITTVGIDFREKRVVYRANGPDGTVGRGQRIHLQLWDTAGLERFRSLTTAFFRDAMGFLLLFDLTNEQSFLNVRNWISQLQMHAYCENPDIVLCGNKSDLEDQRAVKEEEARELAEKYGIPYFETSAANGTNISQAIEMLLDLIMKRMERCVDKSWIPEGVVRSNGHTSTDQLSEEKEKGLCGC

myosin-Va GTD (Homo sapiens), sequence (Q9Y4I1 1448-1855): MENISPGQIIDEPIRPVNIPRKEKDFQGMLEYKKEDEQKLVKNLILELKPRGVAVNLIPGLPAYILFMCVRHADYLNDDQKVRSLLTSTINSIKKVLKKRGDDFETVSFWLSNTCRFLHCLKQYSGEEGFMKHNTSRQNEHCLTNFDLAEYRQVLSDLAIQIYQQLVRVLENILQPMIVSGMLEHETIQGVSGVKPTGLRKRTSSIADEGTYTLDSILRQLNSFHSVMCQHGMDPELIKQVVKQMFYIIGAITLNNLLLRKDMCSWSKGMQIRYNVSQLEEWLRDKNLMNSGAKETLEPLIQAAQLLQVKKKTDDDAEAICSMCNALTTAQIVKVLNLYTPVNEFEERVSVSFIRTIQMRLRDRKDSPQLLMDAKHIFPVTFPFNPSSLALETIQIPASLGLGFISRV
Mlph RBD (Homo sapiens), sequence (Q9BV36 4-124): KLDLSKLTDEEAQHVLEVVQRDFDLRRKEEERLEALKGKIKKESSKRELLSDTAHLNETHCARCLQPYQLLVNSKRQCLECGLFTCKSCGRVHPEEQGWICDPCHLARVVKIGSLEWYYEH

Rab27a (from UniProt P51159)
Kd (Mlph RBD (Homo sapiens)): 0.112 µM

GFP-Mlph-RBD (domain or fragment)
Kd (GST-Rab27a-Q78L): 0.143 µM

SPIRE2 (from UniProt Q8WWL2)
Kd [1]: 0.9 µM

Mlph (from UniProt Q9BV36)
Kd [2]: 0.5 µM

B1: GFP-SPIRE1-MSFH (domain or fragment)
chain: PEEIRRSRLDVTTPESTKNLVESSMVNGGLTSQTKENGLSTSQQVPAQRKKLLRAPTLAELDSSESEEETLHKSTSSSSVSPSFPEEPVLEAVSTRKKPPKFLPISSTPQPERRQPPQRRHSIEKETPTNVRQFLPPSRQSSRSLEEFCYPVECLALTVEEVMHIRQVLVKAELEKYQQYKDIYTALKKGKLCFCCRTRRFSFFTWSYTCQFCKRPVCSQCCKKMRLPSKPYSTLPIFSLGPSALQRGESSMRSEKPSTAHHRPLRSIARFSSKSKSMDKSDEELQFPKELMEDWSTMEVCVDCKKFISEIISSSRRSLVLANKRARLKRKTQSFYMSSPGPSEYCPSERTISEI
modifications: Limits are not in the text (Fig. 6a / Supplementary Table 9). By convention, the start is just after the last WH2 (ends at 386) and the end is the C-terminus. NM_020148.2 is taken as the 742-aa …
Kd (GST-Rab27a-Q78L; one partner purified): 0.707 ± 0.155 µM

B2: vYNE-SPIRE2 (natural protein, human, UniProt Q8WWL2 1-714, looked up)
chain: MARAGSCGGAAAGAGRPEPWELSLEEVLKAYEQPLNEEQAWAVCFQGCRGLRGSPGRRLRDTGDLLLRGDGSVGAREPEAAEPATMVVPLASSEAQTVQSLGFAIYRALDWGLDESEERELSPQLERLIDLMANNDSEDSGCGAADEGYGGPEEEEEAEGVPRSVRTFAQAMRLCAARLTDPRGAQAHYQAVCRALFVETLELRAFLARVREAKEMLQKLREDEPHLETPRAELDSLGHTDWARLWVQLMRELRRGVKLKKVQEQEFNPLPTEFQLTPFEMLMQDIRARNYKLRKVMVDGDIPPRVKKDAHELILDFIRSRPPLKQVSERRLRPLPPKQRSLHEKILEEIKQERRLRPVRGEGWAARGFGSLPCILNACSGDAKSTSCINLSVTDAGGSAQRPRPRVLLKAPTLAEMEEMNTSEEEESPCGEVTLKRDRSFSEHDLAQLRSEVASGLQSATHPPGGTEPPRPRAGSAHVWRPGSRDQGTCPASVSDPSHPLLSNRGSSGDRPEASMTPDAKHLWLEFSHPVESLALTVEEVMDVRRVLVKAEMEKFLQNKELFSSLKKGKICCCCRAKFPLFSWPPSCLFCKRAVCTSCSIKMKMPSKKFGHIPVYTLGFESPQRVSAAKTAPIQRRDIFQSLQGPQWQSVEEAFPHIYSHGCVLKDVCSECTSFVADVVRSSRKSVDVLNTTPRRSRQTQSLYIPNTRTLDFK
notes: human SPIRE2, cDNA AJ422077; also called SPIRE2 (BiFC); source: HEK293a, transfected, in living cells; not shown: enhanced Venus YFP N-terminus fragment (amino acids 1-173)
mean normalised BiFC (% max) (vYCE-Rab27a wild type): 85.4 % max
mean normalised BiFC (% max) (vYCE-Rab27a Q78L): 85.2 % max

B3: vYNE-SPIRE1 (natural protein, human, UniProt Q08AE8-2 1-742, looked up)
chain: MAQAAGPAGGGEPRTEAVGGEGPREPGAAGGAAGGSRDALSLEEILRLYNQPINEEQAWAVCYQCCGSLRAAARRRQPRHRVRSAAQIRVWRDGAVTLAPAADDAGEPPPVAGKLGYSQCMETEVIESLGIIIYKALDYGLKENEERELSPPLEQLIDHMANTVEADGSNDEGYEAAEEGLGDEDEKRKISAIRSYRDVMKLCAAHLPTESDAPNHYQAVCRALFAETMELHTFLTKIKSAKENLKKIQEMEKSDESSTDLEELKNADWARFWVQVMRDLRNGVKLKKVQERQYNPLPIEYQLTPYEMLMDDIRCKRYTLRKVMVNGDIPPRLKKSAHEIILDFIRSRPPLNPVSARKLKPTPPRPRSLHERILEEIKAERKLRPVSPEEIRRSRLDVTTPESTKNLVESSMVNGGLTSQTKENGLSTSQQVPAQRKKLLRAPTLAELDSSESEEETLHKSTSSSSVSPSFPEEPVLEAVSTRKKPPKFLPISSTPQPERRQPPQRRHSIEKETPTNVRQFLPPSRQSSRSLEEFCYPVECLALTVEEVMHIRQVLVKAELEKYQQYKDIYTALKKGKLCFCCRTRRFSFFTWSYTCQFCKRPVCSQCCKKMRLPSKPYSTLPIFSLGPSALQRGESSMRSEKPSTAHHRPLRSIARFSSKSKSMDKSDEELQFPKELMEDWSTMEVCVDCKKFISEIISSSRRSLVLANKRARLKRKTQSFYMSSPGPSEYCPSERTISEI
notes: human SPIRE1, cDNA NM_020148.2; also called SPIRE1 (BiFC); source: HEK293a, transfected, in living cells; not shown: enhanced Venus YFP N-terminus fragment (amino acids 1-173)
mean normalised BiFC (% max) (vYCE-Rab27a wild type): 89.3 % max
mean normalised BiFC (% max) (vYCE-Rab27a Q78L): 75.2 % max

Reference: publication PMC7359353, “Rab27a co-ordinates actin-dependent transport by controlling organelle-associated motors and track assembly proteins” (Nature Communications, 2020)
